Literature values as cited in article PMC10229114.
pKd: −log10 of the molar value.

Legend:
SDF-1α (Homo sapiens) = SDF-1α (Homo sapiens) (UniProt P48061)
SLy1 SAM (Homo sapiens) = SLy1 SAM (Homo sapiens) (UniProt O75995)

Chain of SLy1 SAM (O75995 252-316): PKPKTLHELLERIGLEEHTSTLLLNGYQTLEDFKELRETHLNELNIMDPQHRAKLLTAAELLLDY
Chain of SDF-1α (P48061 24-88): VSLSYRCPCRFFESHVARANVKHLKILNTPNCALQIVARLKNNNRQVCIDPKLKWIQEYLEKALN

| Substance | pKd (SDF-1α (Homo sapiens)) | pKd (SLy1 SAM (Homo sapiens)) |
| --- | --- | --- |
| SDF-1α (from UniProt P48061) | 3.82 |  |
| SLy1 SAM (from UniProt O75995) |  | 3.93 |
